Test [1] has as its target native human HER2 (human) (UniProt P04626). Description: cell-based or functional assay.
Test [2] shares this target. Description: inhibition of 125I-rHRGβ1 binding to MCF7 monolayers on ice; labeled ligand rHRGβ1.

A value given as a limit tells only on which side of the number the result lay.

In the case of murine monoclonal antibody 2C4, the HRG stimulation of p180 tyrosine phosphorylation in MCF7 cells in test [1] was < 25 % of control. The substance also registered a maximum inhibition of HRG binding in test [2] of 74%. On to murine monoclonal antibody 4D5, for which the inhibition of cell proliferation of SK-BR-3 cells (crystal violet) in test [1] came to 66%.
